Test results as given in US20190256584A1 (University of California, published 2019).
Residue numbers refer to the chain shown, from its start.

T1: Botulinum neurotoxin serotype C (BoNT/C) (Clostridium botulinum, UniProt P18640 2-1291)
T1 sequence: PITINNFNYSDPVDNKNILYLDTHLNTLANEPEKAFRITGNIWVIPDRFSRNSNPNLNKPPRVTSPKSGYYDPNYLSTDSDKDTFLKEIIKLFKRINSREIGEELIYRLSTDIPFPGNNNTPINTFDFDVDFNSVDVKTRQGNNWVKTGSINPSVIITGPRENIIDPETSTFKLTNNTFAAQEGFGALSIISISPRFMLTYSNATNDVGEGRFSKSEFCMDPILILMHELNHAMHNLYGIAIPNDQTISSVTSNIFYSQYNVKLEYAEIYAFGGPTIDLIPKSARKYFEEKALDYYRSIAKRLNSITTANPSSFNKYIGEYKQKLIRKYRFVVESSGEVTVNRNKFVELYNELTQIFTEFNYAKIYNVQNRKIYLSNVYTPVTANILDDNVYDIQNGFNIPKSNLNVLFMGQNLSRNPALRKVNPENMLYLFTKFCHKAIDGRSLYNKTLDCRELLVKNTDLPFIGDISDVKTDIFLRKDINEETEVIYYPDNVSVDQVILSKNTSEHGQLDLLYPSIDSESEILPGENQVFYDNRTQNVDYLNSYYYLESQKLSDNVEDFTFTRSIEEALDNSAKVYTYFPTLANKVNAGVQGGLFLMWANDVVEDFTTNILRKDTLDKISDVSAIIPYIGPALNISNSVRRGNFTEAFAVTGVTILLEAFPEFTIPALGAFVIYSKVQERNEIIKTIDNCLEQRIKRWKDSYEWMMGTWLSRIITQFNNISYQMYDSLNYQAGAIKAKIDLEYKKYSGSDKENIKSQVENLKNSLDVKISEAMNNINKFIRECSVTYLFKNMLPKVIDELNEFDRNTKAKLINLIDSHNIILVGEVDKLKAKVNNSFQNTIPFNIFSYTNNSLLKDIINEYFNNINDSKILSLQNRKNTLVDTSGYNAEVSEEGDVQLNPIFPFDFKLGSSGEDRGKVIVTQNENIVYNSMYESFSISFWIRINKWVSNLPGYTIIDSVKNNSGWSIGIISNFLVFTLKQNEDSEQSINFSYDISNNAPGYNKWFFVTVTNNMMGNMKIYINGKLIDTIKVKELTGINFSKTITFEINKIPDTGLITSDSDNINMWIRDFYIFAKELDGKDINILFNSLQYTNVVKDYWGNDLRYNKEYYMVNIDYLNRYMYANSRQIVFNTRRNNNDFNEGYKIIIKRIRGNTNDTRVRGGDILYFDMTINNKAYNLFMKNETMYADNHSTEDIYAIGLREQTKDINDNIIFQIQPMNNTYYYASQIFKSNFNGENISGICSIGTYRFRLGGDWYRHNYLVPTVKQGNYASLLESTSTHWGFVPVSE

B1: 4C10.5 IgG (antibody, V domains shown)
VH: QVQLVQSGGGVVQPGRSLRLSCGASRFTFSGFDMHWVRQAPGKGLEWVARISHDGSMADYADSLRGRFTISRDNSKNTLYLQMNSLRVEDTALYYCAKDRWRSGSYPAFEIWGQGTMVTVSS
VL: EIVLTQSPSFLSAFVGDRITITCRASQGISNRLAWYQQKPGKAPNLLIHPASTLQSGVPSRFSGSGSGTDFTLTISSLQPEDFATYYCQQANSFPLTFGGGTKVEIKR
B2: 4C10.8 IgG (antibody, V domains shown)
VH: B1 VH with R100P
VL: B1 VL with V15I, H49Y
B3: 4C10.15 IgG (antibody, V domains shown)
VH: B1 VH
VL: B1 VL with Q27K, S30G
B4: 4C10.17 IgG (antibody, V domains shown)
VH: B1 VH
VL: B1 VL with T53S
B5: 4C10.18 IgG (antibody, V domains shown)
VH: B1 VH with V12A
VL: B1 VL with S30G, N92H, S93R
B6: 4C10.20 IgG (antibody, V domains shown)
VH: B1 VH with R100P
VL: B1 VL with V15I, S30G, H49Y
B7: 4C10.22 IgG (antibody, V domains shown)
VH: B1 VH with R26G, T28K, R100P
VL: B1 VL with V15I, H49Y
B8: 4C10.23 IgG (antibody, V domains shown)
VH: B1 VH with R26G, T28K
VL: B1 VL with Q27K, S30G

The binders below were run against Botulinum neurotoxin mosaic BoNT/DC (Clostridium botulinum) (assay: range-finding KinExA, IgG).
In the case of B1, the Kd is reported as 0.987 nM.
B2 was tested, and the Kd was 0.0564 nM.
In the case of B3, the Kd is reported as 0.112 nM.
Binder B4 has a Kd of 0.766 nM.
B5 was tested, and the Kd was 0.109 nM.
For B6, the Kd was 0.0166 nM.
In the case of B7, the Kd is reported as 0.0604 nM.
In the case of B8, the Kd is reported as 0.0904 nM.

The binders below were run against T1, Botulinum neurotoxin serotype C (BoNT/C) (assay: KinExA, IgG).
B1 was tested, and the Kd was 0.0651 nM.
B2 gave a Kd of 0.0035 nM.
B3 gave a Kd of 0.0122 nM.
With B4 the Kd was 0.0325 nM.
B5 was tested, and the Kd was 0.0108 nM.
B6 was tested, and the Kd was 0.00102 nM.
B7 was tested, and the Kd was 0.00192 nM.
For B8, the Kd was 0.00665 nM.

These binders were tested against Botulinum neurotoxin mosaic BoNT/DC (Clostridium botulinum) (assay: KinExA, IgG).
Work on B1 yielded a Kd of 0.987 nM.
Binder B2 has a Kd of 0.0564 nM.
For B3, the Kd was 0.112 nM.
Binder B4 has a Kd of 0.766 nM.
Work on B5 yielded a Kd of 0.109 nM.
B6 showed a Kd of 0.0166 nM.
With B7 the Kd was 0.0604 nM.
Binder B8 has a Kd of 0.0904 nM.

Each binder was assayed against T1, Botulinum neurotoxin serotype C (BoNT/C) (assay: range-finding KinExA, IgG).
Binder B1 has a Kd of 0.0651 nM.
For B2, the Kd was 0.0035 nM.
In the case of B3, the Kd is reported as 0.0122 nM.
B4 showed a Kd of 0.0325 nM.
In the case of B5, the Kd is reported as 0.0108 nM.
Binder B6 has a Kd of 0.00102 nM.
With B7 the Kd was 0.00192 nM.
B8 was tested, and the Kd was 0.00665 nM.
